Measurements reported in publication PMC10866396 (Molecular cancer therapeutics, 2023).

Target: Avi-tagged-eIF4E (human, UniProt P06730 1-217, biotin (co-transfected bacterial biotin ligase BirA; loaded on streptavidin tips))
Assay: BLI

Chain of Avi-tagged-eIF4E (P06730 whole entry): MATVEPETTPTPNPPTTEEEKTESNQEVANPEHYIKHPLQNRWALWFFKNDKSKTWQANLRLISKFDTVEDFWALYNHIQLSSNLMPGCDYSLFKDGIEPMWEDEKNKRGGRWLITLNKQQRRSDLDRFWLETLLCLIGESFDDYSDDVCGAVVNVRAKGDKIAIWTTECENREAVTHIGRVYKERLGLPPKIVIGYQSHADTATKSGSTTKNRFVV

**Q.** How did the Kd turn out when YPYAASPA [Pep8 peptide] was run?
**A.** 25 µM
